Measured values from patent publication US10227575B2, “Multi-domain enzymes having cutinase activity, compositions comprising same and uses thereof” (OZYMES, priority 2015, dated 2019).
Marks after values point to notes of the source that are not given here.

Assays:
[1] = Enzyme substrate profiles, esterase assays; assay type: biochemical; details: highest activity towards a specific substrate set to 100%
Procedure: (§1) Esterase activity was determined by monitoring the formation of para-nitrophenol (pNP) at 410 nm from various pNP-esters using a Beckman UV spectrophotometer (model DU 640). Substrates were completely dissolved in 2-propanol (8 mM) and were then added to 50 mM Tris/HCl buffer pH 8.0 to give a final substrate concentration of 0.8 mM. The reaction (1 mL) was started by adding an appropriate amount of enzyme. One enzyme unit (U) was defined as the amount of enzyme that produced 1 μmol of product (pNP) per min; specific activity was expressed as U/mg protein. A molar extinction coefficient of 15 mM^−1 cm^−1 was used for the calculation.

[2] = Specific activity of purified enzymes (standard esterase assay); assay type: biochemical
Procedure: In summary, using different techniques for enzyme purification, pure enzyme preparations were obtained and tested for their activity towards a standard esterase substrate, pNP-palmitate. Enzymatic activities of the purified variants are summarized below:
as §1

[3] = Stability in the presence of hydrogen peroxide; assay type: physicochemical
Procedure: as §1
Purified cutinases were incubated at room temperature in the presence of 0, 30, 100, 300, 1500, and 3000 ppm of hydrogen peroxide. Residual enzyme activity was assayed (see Example 20.1) after 1, 2, 3, and 7 days of incubation.

[4] = pH dependence of enzymes; assay type: biochemical; details: for Relative activity (%): highest activity = 100%
Procedure: The influence of different pH values (from 5.5 to 11) on the activities of the purified enzymes was examined in three buffer systems (sodium acetate, sodium phosphate, and Tris-HCl) at room temperature using pNP-palmitate (see esterase assay in Example 20.1) as a substrate at a final substrate concentration of 0.8 mM.

[5] = Circular dichroism spectroscopy, melting temperature and refolding; assay type: physicochemical
Procedure: CD spectra were recorded using a Jasco™ J-815 spectrometer operating with the Spectra™ Manager software. Temperature was controlled using a Jasco™ PFD-452S peltier unit. Previously purified protein solutions were adjusted to 0.15 mg/mL (if quantities allowed for) and CD spectra were recorded between 190 and 250 nm using a Quartz cuvette (ID=0.1 cm). Blanks containing buffer only were prepared and used as baseline. Temperature dependent protein unfolding was monitored at 222 nm with thermo profiles ranging from 20 up to 90° C. (2° C. min-1). Samples were kept for 5 min at the respective maximum temperature and protein refolding was monitored using the same conditions as above reversing the thermo profiles. Thermodynamic parameters (Tm, ΔH, ΔS, ΔG) for the folding/unfolding process, if applicable, were calculated using the Spectra™ Manager software.

[6] = Activity of crude culture supernatants from bioreactor; assay type: biochemical; details: pNP-dodecanoate
[7] = Enzymatic activity in the presence of organic solvents; assay type: biochemical; details: buffer only = 100%
Procedure: Enzyme activity in various organic solvents was studied over a concentration range of 1-30% at room temperature. pNP-palmitate was completely dissolved in 2-propanol (8 mM) and then added to 50 mM Tris/HCl buffer pH 8.0 containing up to 30% organic solvent to give a final substrate concentration of 0.8 mM. The reaction was started by addition of enzyme and the formation of pNP was assayed as described above in Example 20.1.

[8] = Temperature optimum; assay type: biochemical; details: for Relative activity at temperature: highest activity set to 100%
Procedure: For estimation of the temperature optimum, buffer containing pNP-palmitate (see esterase assay in Example 20.1) was pre-incubated to reach the desired temperature, enzyme was then added, and the formation of pNP was assayed. For this experiment, Tris/HCl buffer was replaced with sodium phosphate buffer (50 mM, pH 8.0) to avoid a pH shift at the different temperatures.

B1: Am-Kr: chimeric variant: AmCUT fused to the T/P-rich linker domain and polymer binding domain of KrCUT, SEQ ID NO: 27 (protein)
chain: ACSDLEIVFARGSGEAPGLGITGTPLVSDVKSALSSASVSSYAVDYAASYDQTSAGPGATDMSNHIKSTAAACPDTKFAIGGYSQGASVTDIAIGIRTYLGTGQTIPTELAPRVVAVIAFGNPLGLYGQTIKTASPTYGPKSLEFCNRGDNVCGGTGTGPGYGHLSYARDGSVDQAAAFIAKQYNASAGTPTTPTPTPTPTPVPTTCVRDSTRDHVAADRAVSLYGRAYARGSRDSLGATSSYNVVSLQQVEGGWRLVTAC
modifications: YebF carrier; Am-Kr variant
For B1, the “Relative activity, pNP-acetate (C2)” value [1] was 9 ± 1%, the “Relative activity, pNP-butyrate (C4)” value [1] was 75 ± 8% and the “Relative activity, pNP-caprylate (C8)” value [1] was 100* %. For the same molecule, the “Relative activity, pNP-decanoate (C10)” value [1] was 72 ± 2%, the “Relative activity, pNP-myristate (C14)” value [1] was 46 ± 8% and the “Relative activity, pNP-palmitate (C16)” value [1] was 49 ± 6%. For the same molecule, the “Enzymatic activity of the purified variant” value ([2]; pNP-palmitate) was 174 ± 11 U/mg, the “Spec. Act. (U/mg)” value ([2]; towards pNP-palmitate (standard assay)) was 174 ± 11 U/mg and the “Relative activity (%) after exposure to hydrogen peroxide” value (“Relative activity (%) after exposure” below) ([3]; H2O2 30 ppm, Day 0) was 92 ± 3%. The “Relative activity (%) after exposure” value ([3]; H2O2 30 ppm, Day 1) was 90 ± 15%, the “Relative activity (%) after exposure” value ([3]; H2O2 30 ppm, Day 2) was 82 ± 8% and the “Relative activity (%) after exposure” value ([3]; H2O2 30 ppm, Day 3) was 71 ± 4%. The “Relative activity (%) after exposure” value ([3]; H2O2 30 ppm, Day 7) was 63 ± 5%, the “Relative activity (%) after exposure” value ([3]; H2O2 100 ppm, Day 0) was 101 ± 3% and the “Relative activity (%) after exposure” value ([3]; H2O2 100 ppm, Day 1) was 97 ± 5%. The “Relative activity (%) after exposure” value ([3]; H2O2 100 ppm, Day 2) was 83 ± 2%, the “Relative activity (%) after exposure” value ([3]; H2O2 100 ppm, Day 3) was 73 ± 5% and the “Relative activity (%) after exposure” value ([3]; H2O2 100 ppm, Day 7) was 69 ± 4%. For the same molecule, the “Relative activity (%) after exposure” value ([3]; H2O2 300 ppm, Day 0) was 100 ± 9%, the “Relative activity (%) after exposure” value ([3]; H2O2 300 ppm, Day 1) was 88 ± 5% and the “Relative activity (%) after exposure” value ([3]; H2O2 300 ppm, Day 2) was 83 ± 2%. For the same molecule, the “Relative activity (%) after exposure” value ([3]; H2O2 300 ppm, Day 3) was 72 ± 10%, the “Relative activity (%) after exposure” value ([3]; H2O2 300 ppm, Day 7) was 61 ± 4% and the “Relative activity (%) after exposure” value ([3]; H2O2 1,500 ppm, Day 0) was 91 ± 8%. The “Relative activity (%) after exposure” value ([3]; H2O2 1,500 ppm, Day 1) was 97 ± 9%, the “Relative activity (%) after exposure” value ([3]; H2O2 1,500 ppm, Day 2) was 75 ± 15% and the “Relative activity (%) after exposure” value ([3]; H2O2 1,500 ppm, Day 3) was 73 ± 3%. For the same molecule, the “Relative activity (%) after exposure” value ([3]; H2O2 1,500 ppm, Day 7) was 60 ± 6%, the “Relative activity (%) after exposure” value ([3]; H2O2 3,000 ppm, Day 0) was 86 ± 6% and the “Relative activity (%) after exposure” value ([3]; H2O2 3,000 ppm, Day 1) was 68 ± 9%. The “Relative activity (%) after exposure” value ([3]; H2O2 3,000 ppm, Day 2) was 63 ± 4%, the “Relative activity (%) after exposure” value ([3]; H2O2 3,000 ppm, Day 3) was 67 ± 2% and the “Relative activity (%) after exposure” value ([3]; H2O2 3,000 ppm, Day 7) was 55 ± 3%. The “Relative activity (%) after exposure” value ([3]; H2O2 3,000 ppm, Day 7, listed as Am—Kr) was 55%, the pH opt. [4] was 9.5 and the “Relative activity (%)” value ([4]; pH 6.5, sodium phosphate buffer) was 23 ± 2%. For the same molecule, the “Relative activity (%)” value ([4]; pH 7.0, sodium phosphate buffer) was 46 ± 3%, the “Relative activity (%)” value ([4]; pH 7.5, sodium phosphate buffer) was 54 ± 3% and the “Relative activity (%)” value ([4]; pH 8.0, Tris/HCl) was 84 ± 2%. The “Relative activity (%)” value ([4]; pH 8.5, Tris/HCl) was 88 ± 9%, the “Relative activity (%)” value ([4]; pH 9.0, Tris/HCl) was 91 ± 5% and the “Relative activity (%)” value ([4]; pH 9.5, Tris/HCl) was 100* %. For the same molecule, the “Relative activity (%)” value ([4]; pH 10, Tris/HCl) was 47 ± 4%, the “Relative activity (%)” value ([4]; pH 10.5, Tris/HCl) was 10 ± 1% and the refolding ([5]; CD at 222 nm) was “did not show any refolding”. For the same molecule, the “melting temperature (Tm)” value ([5]; CD at 222 nm, unfolding) was 55.0 °C, the “Tm (° C.)” value ([5]; estimated using CD-spectroscopy) was 55 ± 1 °C and the “activity of crude culture supernatant” value [6] was 0.5 U/mL. For the same molecule, the “Relative enzymatic activity (%)” value ([7]; 2-Propanol 5% (v/v)) was 70 ± 10%, the “Relative enzymatic activity (%)” value ([7]; 2-Propanol 10% (v/v)) was 23 ± 2% and the “Relative enzymatic activity (%)” value ([7]; Acetone 1% (v/v)) was 118 ± 1%. For the same molecule, the “Relative enzymatic activity (%)” value ([7]; Acetone 5% (v/v)) was 90 ± 14%, the “Relative enzymatic activity (%)” value ([7]; Acetone 10% (v/v)) was 74 ± 7% and the “Relative enzymatic activity (%)” value ([7]; Dimethyl sulfoxide (DMSO) 10% (v/v)) was 114 ± 2%. The “Relative enzymatic activity (%)” value ([7]; Dimethyl sulfoxide (DMSO) 20% (v/v)) was 90 ± 8%, the “Relative enzymatic activity (%)” value ([7]; Dimethyl sulfoxide (DMSO) 30% (v/v)) was 60 ± 5% and the “Relative enzymatic activity (%)” value ([7]; Dimethylformamide (DMF) 5% (v/v)) was 120 ± 11%. For the same molecule, the “Relative enzymatic activity (%)” value ([7]; Methanol 10% (v/v)) was 87 ± 10%, the “Relative enzymatic activity (%)” value ([7]; Methanol 20% (v/v)) was 60 ± 13% and the “Temp. opt. (° C.)” value [8] was 45 °C. For the same molecule, the “Relative activity at temperature” value ([8]; 20 ° C.) was 50 ± 2%, the “Relative activity at temperature” value ([8]; 25 ° C.) was 61 ± 2% and the “Relative activity at temperature” value ([8]; 30 ° C.) was 69 ± 2%. For the same molecule, the “Relative activity at temperature” value ([8]; 35 ° C.) was 78 ± 1%, the “Relative activity at temperature” value ([8]; 40 ° C.) was 87 ± 2% and the “Relative activity at temperature” value ([8]; 45 ° C.) was 100* %. For the same molecule, the “Relative activity at temperature” value ([8]; 50 ° C.) was 81 ± 10%, the “Relative activity at temperature” value ([8]; 55 ° C.) was 37 ± 5% and the “Relative activity at temperature” value ([8]; 60 ° C.) was 9 ± 1%.
